# Measured values: paper PMC3150801 (Nature, 2011)
# B1: Full-length [35S]methionine-labeled SRC-3 (natural protein)
# chain: not shown
# modifications: [35S]methionine label
# Biological target: GST hLRH-1 ligand binding domain (amino acid residues, 185-541) (human, UniProt O00482 185-541)
# Test: pull-down
# GST hLRH-1 ligand binding domain (amino acid residues, 185-541), sequence (O00482 185-541): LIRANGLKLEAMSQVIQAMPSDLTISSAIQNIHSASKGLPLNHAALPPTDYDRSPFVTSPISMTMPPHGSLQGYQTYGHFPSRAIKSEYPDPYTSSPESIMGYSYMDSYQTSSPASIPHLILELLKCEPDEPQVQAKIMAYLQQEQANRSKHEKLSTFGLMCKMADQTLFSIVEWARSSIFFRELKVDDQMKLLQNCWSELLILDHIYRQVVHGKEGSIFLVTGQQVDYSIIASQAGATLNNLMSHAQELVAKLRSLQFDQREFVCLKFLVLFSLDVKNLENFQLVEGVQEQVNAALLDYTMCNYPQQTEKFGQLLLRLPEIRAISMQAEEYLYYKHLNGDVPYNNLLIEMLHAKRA
binder,measurement,value
B1,fold increase of binding with DLPC or DUPC over basal,~3 fold
